These results are taken from paper PMC11309785.

The target of the test is BG505_B23 trimer, His-tagged (HIV-1 isolate BG505). Kind of test: SPR; ProteOn XPR36, HC30M XanTec chip; His-tagged trimer (300 to 400 RU, 1 ug/mL) captured by immobilised rabbit anti-His-tag pAb, Fab flowed as analyte at 30 ul/min for 3 min, 5 min dissociation; 1x HBS-EP+ pH 7.4 with BSA 1 mg/ml; equilibrium or kinetic (Langmuir) fits; highest concentration 2x10^-5 M, approximate upper affinity limit 1.6x10^-11 M. For orientation: In SPR one partner is held on a chip, and binding of the other changes the refractive index at the surface.

B1: RM_N332_08 Fab (Fab, V domains shown)
VH: QVQLVQSGAEVKKPGSSVKVSCKASGYTFTDHYIHWVRQAPRQGLEWMGWINPYNGNTNYAQKFQGRVTLTRDTSTTTVYMELISLRSEDTAVYYCARGGEYCTGFGCFAGKGDNSLDVWGRGVLVSVSS
VL: DIVMIQTPLSLPVTPGEPASISCRSSQSLFDIEDETTYLEWFLQKPGQSPQPLIYEVSNRASGVPDRFSGSGSDTAFTLKISRVEAEDVGIYYCMQGIEYPFTFGPGTKVEIK
Molecule B1 gave a Kd of under 100 nM.

B2: RM_N332_07 Fab (Fab, V domains shown)
VH: QVQLQESGPGLVKPSETLSLTCAVSGASFSSFWWDWIRQPPGRGLEWIGDINGNSGSTNYNPSLKSRVTISKDASKSQFSLKLTSVTAADTAVYYCALQSVTYYEDDSGHYETEMAKFWGQGVLVTVSS
VL: QPVLTQPPSVSGAPGQRVTISCSGSSSNIGGYHVQWYQQLPGTAPKLLIYESNKRPSGISDRFSASQFGTSASLTITGLQSEDEADYYCQSYDSSVSAQVFGGGTRLTVL
As to B2, the Kd was under 100 nM.

The Kd is the free concentration of one partner at which half of the binding sites on the other are occupied at equilibrium, for simple one-to-one binding. Lower therefore signals a tighter complex.
